Biological target: SNARE (H3) domain of syntaxin-1a (aa 180–262) (rat, UniProt P32851 180-262)
Test: assembly of purified monomers and anion-exchange chromatography

Sequence of SNARE (H3) domain of syntaxin-1a (aa 180–262) (P32851 180-262): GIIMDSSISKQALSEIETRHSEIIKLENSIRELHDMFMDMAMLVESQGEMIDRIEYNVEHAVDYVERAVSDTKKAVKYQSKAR

NVDKVLERDQKLSELDDRADALQAGASQFETSAAKLKRKYWWKNLKMM (domain or fragment) [Syb49–96]: binds.

Source: PMC2819690 (The Journal of Cell Biology, 2010)
